# Reference: patent publication US20110014213A1 (JURIDICAL FDN THE CHEMO SERO THERAP RES INS, published 2011)
# T1: mouse α9 integrin (mouse, UniProt B8JK39 29-1036)
# T1 chain: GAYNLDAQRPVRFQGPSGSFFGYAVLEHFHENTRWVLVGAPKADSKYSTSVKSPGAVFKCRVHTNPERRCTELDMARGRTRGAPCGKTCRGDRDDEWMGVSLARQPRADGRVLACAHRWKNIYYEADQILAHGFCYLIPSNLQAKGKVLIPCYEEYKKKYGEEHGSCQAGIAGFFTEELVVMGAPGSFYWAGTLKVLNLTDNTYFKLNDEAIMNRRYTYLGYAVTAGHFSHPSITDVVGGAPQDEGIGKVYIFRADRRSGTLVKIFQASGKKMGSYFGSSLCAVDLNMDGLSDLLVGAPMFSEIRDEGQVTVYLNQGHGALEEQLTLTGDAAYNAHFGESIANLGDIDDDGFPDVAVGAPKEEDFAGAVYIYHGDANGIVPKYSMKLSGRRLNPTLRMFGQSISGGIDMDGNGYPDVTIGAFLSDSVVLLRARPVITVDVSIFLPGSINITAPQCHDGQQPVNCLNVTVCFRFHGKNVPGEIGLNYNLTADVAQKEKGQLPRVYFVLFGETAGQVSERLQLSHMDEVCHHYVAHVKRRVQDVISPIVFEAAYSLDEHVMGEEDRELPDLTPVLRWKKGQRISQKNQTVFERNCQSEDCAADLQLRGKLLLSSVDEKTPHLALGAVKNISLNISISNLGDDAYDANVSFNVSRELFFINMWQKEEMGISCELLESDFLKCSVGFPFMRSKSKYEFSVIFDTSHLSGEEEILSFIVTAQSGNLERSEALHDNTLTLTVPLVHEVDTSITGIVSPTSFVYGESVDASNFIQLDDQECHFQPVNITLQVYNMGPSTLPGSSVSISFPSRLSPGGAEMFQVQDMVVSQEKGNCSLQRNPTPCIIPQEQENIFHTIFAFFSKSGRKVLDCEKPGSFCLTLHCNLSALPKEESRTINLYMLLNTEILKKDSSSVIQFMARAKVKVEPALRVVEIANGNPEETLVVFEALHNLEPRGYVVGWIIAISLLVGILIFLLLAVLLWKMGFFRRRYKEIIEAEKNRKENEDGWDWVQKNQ
# T2: human α9 integrin (human, UniProt Q13797 30-1035)
# T2 sequence: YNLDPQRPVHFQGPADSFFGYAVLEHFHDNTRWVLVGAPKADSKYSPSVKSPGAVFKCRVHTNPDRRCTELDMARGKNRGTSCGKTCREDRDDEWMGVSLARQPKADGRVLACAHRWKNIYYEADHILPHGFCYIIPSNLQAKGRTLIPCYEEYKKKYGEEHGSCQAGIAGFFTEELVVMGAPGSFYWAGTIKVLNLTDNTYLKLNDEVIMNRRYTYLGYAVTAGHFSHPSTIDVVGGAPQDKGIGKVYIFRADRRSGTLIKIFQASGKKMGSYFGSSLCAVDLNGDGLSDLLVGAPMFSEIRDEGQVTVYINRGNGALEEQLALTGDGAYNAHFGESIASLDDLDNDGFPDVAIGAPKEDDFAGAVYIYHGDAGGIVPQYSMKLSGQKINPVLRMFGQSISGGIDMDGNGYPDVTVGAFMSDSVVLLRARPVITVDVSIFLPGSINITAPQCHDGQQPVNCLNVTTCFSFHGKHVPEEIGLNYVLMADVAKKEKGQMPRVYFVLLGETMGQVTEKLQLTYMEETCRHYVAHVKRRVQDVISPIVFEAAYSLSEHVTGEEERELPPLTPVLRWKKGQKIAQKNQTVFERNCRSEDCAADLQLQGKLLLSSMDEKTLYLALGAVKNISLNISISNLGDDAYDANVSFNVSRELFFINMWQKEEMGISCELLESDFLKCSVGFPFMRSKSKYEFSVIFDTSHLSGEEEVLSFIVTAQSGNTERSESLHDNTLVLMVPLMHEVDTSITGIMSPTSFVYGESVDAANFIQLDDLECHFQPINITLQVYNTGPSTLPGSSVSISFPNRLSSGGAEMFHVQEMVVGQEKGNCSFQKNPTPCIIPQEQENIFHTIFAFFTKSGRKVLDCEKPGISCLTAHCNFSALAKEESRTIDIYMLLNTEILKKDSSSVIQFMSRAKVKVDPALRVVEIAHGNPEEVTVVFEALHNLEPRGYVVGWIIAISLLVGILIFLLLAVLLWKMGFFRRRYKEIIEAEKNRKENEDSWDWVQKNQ
# B1: MA9-413 scFv-Fc (Fc fusion)
# scFv: EVQLVESGGGVVRPGGSLRLSCAASGFAFGDYGMSWVRQAPGKGLEWVSGINWNGGSTGYADSVKGRFTTSRDNAKNSLYLQMNSLRAEDTALYYCARDENYDILTGYYYYGMDVWGQGTTVTVSSGGGGSGGGGSGGGGSQSVVTQPPSVSAAPGQKVTISCSGSSSNIGNNYVSWYQQLPGTAPKLLIYDNNKRPSGIPDRFSASKSGTSATLGITGLQTGDEADYYCGTWDSSLTVWAFGGGTKLTVLG
# notes: Divalent scFv-Fc with mouse IgG1 Fc, expressed in CHO-DG44; also called ANM-2; not shown: Fc region of mouse IgG1 and its junction to the scFv
# Legend:
# mouse α9 integrin = biological target: T1, mouse α9 integrin; assay: cell-based or functional assay
# human α9 integrin = biological target: T2, human α9 integrin; assay: cell-based or functional assay
binder,measurement,setting,value
B1,IC50 of inhibition of α9-dependent cell adhesion,mouse α9 integrin,0.34 µg/mL
same,IC50 of inhibition of α9-dependent cell adhesion,human α9 integrin,48.5 µg/mL
